Test results: paper PMC9377714, “Unconventional tonicity-regulated nuclear trafficking of NFAT5 mediated by KPNB1, XPOT and RUVBL2” (Journal of Cell Science, 2022)

Experiments:
Settings in all cases: both partners purified
[1] = target: T1, His–KPNB1 (UniProt Q14974 1-876); test: ITC; NFAT5 fragment at 1.5–1.75 mM titrated into 50 μM full-length KPNB1; 50 mM Tris-HCl pH 8.0, 150 mM NaCl; MicroCal PEAQ-ITC
T1 construct: KPNB1 (karyopherin β1, importin β1), full length, in a modified pET 30a vector; In the pull-down it was held on Ni-NTA by the His tag; also called full-length KPNB1; source: E. coli BL21 (DE3), purified (HisTrap HP)
T1 sequence (Q14974 whole entry, the tested form may be a part): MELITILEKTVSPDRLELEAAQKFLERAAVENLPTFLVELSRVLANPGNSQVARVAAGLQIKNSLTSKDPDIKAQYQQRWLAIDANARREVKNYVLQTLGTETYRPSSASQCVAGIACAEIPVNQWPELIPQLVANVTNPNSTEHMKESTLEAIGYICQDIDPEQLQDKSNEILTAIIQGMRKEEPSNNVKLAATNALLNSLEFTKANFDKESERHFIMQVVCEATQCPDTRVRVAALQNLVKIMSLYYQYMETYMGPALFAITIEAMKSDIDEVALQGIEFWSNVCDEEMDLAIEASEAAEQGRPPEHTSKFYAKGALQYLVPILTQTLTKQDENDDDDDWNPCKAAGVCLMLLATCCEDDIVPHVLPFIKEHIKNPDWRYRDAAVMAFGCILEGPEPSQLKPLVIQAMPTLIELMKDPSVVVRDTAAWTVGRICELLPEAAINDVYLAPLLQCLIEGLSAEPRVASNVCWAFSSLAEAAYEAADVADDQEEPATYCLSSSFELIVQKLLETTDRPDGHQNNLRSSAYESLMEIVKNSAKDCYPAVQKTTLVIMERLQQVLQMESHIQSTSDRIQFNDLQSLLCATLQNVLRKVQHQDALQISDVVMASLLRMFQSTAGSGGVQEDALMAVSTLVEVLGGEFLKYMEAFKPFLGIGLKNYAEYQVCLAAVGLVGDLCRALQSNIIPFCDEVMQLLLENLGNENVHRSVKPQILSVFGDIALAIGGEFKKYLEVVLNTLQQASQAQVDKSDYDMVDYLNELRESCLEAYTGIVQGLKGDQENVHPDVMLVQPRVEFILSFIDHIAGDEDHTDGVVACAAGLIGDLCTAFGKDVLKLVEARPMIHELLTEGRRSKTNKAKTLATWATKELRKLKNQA

[2] = target: T1, His–KPNB1; test: pull-down; His–KPNB1 immobilised on Ni-NTA agarose, GST fusion proteins added, 4°C overnight; washes with 20 mM sodium phosphate, 100 mM NaCl, 40 mM imidazole, 10% glycerol; SDS–PAGE and Coomassie Blue
[3] = target: T1, His–KPNB1; test: ITC; NFAT5_(171–253) at 600 μM titrated into 20 μM full-length KPNB1; 10 mM Na2HPO4, 1.8 mM KH2PO4, 2.7 mM KCl, pH 7.4, 150 mM NaCl; MicroCal PEAQ-ITC

B1: NFAT5_(151–216) (domain or fragment, UniProt O94916 151-216, looked up)
chain: LLDNSRMSCQDEGCGLESEQSCSMWMEDSPSNFSNMSTSSYNDNTEVPRKSRKRNPKQRPGVKRRD
notes: source: E. coli BL21 (DE3), purified
[1]
  Kd: ~1300 nM

B2: NFAT5_(189–216) (domain or fragment, UniProt O94916 189-216, looked up)
chain: SSYNDNTEVPRKSRKRNPKQRPGVKRRD
notes: also called NFAT5-cNLS; source: E. coli BL21 (DE3), purified
[1]
  Kd: ~1500 nM

B3: GST–NFAT5_(171–250) (domain or fragment, UniProt O94916 171-250, looked up)
chain: SCSMWMEDSPSNFSNMSTSSYNDNTEVPRKSRKRNPKQRPGVKRRDCEESNMDIFDADSAKAPHYVLSQLTTDNKGNSKA
notes: also called NFAT5-NLS; source: E. coli BL21 (DE3), purified (glutathione Sepharose); not shown: GST, N-terminal, kept
[2]
  binding result: binds

B4: GST–NFAT5_(171–220) (domain or fragment, UniProt O94916 171-220, looked up)
chain: SCSMWMEDSPSNFSNMSTSSYNDNTEVPRKSRKRNPKQRPGVKRRDCEES
notes: source: E. coli BL21 (DE3), purified (glutathione Sepharose); not shown: GST, N-terminal, kept
[2]
  binding result: binds

B5: GST–NFAT5_(190–250) (domain or fragment, UniProt O94916 190-250, looked up)
chain: SYNDNTEVPRKSRKRNPKQRPGVKRRDCEESNMDIFDADSAKAPHYVLSQLTTDNKGNSKA
notes: NFAT5 residues 190-250, cloned at the C terminus of GST in pGEX-4T-1; source: E. coli BL21 (DE3), purified (glutathione Sepharose); not shown: GST, N-terminal, kept
[2]
  binding result: binds

B6: NFAT5_(171–253) (domain or fragment, UniProt O94916 171-253, looked up)
chain: SCSMWMEDSPSNFSNMSTSSYNDNTEVPRKSRKRNPKQRPGVKRRDCEESNMDIFDADSAKAPHYVLSQLTTDNKGNSKAGNG
notes: as for B1
[3]
  Kd: ~1200 nM
